Each block holds one binder with its values, some of them ahead of it. No end group written: not given here. *: point of attachment. Biotin = O=C1N[C@H]2[C@H](CS[C@H]2CCCCC(=O)*)N1
How the values were obtained:
[1] = biological target: T1, Duffy Antigen Receptor for Chemokines (DARC) (human, UniProt Q16570 1-336); assay: ka for binding to red blood cells divided by ka for binding to THP-1 cells
T1 construct: whole, on cells
T1 sequence (looked up): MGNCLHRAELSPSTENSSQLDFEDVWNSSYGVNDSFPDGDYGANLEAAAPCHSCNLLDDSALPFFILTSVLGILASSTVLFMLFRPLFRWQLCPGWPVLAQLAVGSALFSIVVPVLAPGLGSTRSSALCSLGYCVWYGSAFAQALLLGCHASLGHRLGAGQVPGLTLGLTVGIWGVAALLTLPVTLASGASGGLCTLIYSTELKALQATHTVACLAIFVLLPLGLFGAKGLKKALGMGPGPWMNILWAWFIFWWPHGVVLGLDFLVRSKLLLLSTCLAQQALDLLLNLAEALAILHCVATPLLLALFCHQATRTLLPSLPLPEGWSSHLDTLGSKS

CCR1 = biological target: T2, CCR1 (human, UniProt P32246 1-355); assay: biotin-labeled peptide on receptor-expressing cell lines, 125I-streptavidin
T2 construct: whole, on cells
T2 sequence (looked up): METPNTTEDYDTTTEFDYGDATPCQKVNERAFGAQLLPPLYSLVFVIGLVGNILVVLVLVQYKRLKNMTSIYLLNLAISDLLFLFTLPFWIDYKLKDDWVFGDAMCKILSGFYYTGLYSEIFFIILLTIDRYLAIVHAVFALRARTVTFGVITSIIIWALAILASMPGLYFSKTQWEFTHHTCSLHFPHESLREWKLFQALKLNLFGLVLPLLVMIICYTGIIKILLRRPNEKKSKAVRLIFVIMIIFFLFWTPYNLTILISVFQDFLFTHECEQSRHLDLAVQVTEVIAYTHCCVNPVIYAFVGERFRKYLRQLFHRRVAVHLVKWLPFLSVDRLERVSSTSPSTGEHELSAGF

CXCR2 = biological target: T3, CXCR2 (human, UniProt P25025 1-360); assay: as above
T3 construct: whole, on cells
T3 sequence (looked up): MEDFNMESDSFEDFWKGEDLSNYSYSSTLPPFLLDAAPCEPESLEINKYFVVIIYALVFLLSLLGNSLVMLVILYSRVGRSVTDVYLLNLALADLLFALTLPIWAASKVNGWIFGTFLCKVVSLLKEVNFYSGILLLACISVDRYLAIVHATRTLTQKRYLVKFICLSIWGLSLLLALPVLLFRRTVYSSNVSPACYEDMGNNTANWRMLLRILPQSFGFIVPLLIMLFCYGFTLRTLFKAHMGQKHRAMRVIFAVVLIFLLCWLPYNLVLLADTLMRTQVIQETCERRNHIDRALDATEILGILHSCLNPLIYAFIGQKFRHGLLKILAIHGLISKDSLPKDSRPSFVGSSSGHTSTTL

CXCR1 = biological target: T4, CXCR1 (human, UniProt P25024 1-350); assay: as above
T4 construct: whole, on cells
T4 sequence (looked up): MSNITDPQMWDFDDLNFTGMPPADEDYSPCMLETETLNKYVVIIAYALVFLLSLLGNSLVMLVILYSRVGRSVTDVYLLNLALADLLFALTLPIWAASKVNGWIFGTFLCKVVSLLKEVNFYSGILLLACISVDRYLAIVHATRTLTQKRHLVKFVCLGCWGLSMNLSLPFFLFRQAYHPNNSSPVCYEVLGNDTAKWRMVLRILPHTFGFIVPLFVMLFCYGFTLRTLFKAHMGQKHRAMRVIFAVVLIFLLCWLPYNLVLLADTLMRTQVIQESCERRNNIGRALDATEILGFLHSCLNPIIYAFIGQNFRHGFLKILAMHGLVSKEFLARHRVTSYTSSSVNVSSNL

CXCR4 = biological target: T5, CXCR4 (human, UniProt P61073 1-352); assay: as above
T5 construct: whole, on cells

CCR4 = biological target: T6, CCR4 (human, UniProt P51679 1-360); assay: as above
T6 construct: whole, on cells
T6 sequence (looked up): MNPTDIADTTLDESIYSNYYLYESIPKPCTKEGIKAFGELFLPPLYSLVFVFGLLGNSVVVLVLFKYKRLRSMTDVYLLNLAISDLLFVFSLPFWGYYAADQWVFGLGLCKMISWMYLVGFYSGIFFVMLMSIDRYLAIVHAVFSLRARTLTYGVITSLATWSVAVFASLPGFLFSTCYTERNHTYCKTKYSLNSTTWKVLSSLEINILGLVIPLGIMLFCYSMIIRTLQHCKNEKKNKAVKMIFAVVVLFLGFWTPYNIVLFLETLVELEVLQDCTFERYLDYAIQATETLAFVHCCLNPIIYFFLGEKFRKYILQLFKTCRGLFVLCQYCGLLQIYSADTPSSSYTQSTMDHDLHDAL

CCR5 = biological target: T7, CCR5 (human, UniProt P51681 1-352); assay: as above
T7 construct: whole, on cells

CCR3 = biological target: T8, CCR3 (human, UniProt P51677 1-355); assay: as above
T8 construct: whole, on cells
T8 sequence (looked up): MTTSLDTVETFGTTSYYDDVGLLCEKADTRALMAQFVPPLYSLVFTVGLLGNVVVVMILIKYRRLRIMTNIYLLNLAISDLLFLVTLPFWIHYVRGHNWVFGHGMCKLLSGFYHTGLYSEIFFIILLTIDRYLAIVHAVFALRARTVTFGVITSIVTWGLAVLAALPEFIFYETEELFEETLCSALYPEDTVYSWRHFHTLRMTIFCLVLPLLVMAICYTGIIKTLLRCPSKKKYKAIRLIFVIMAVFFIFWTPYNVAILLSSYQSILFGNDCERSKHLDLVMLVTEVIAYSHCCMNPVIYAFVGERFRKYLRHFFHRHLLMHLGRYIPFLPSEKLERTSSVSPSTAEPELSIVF

CCR2 = biological target: T9, CCR2 (human, UniProt P41597 1-374); assay: as above
T9 construct: whole, on cells

[2] = biological target: T1, Duffy Antigen Receptor for Chemokines …; assay: competition binding analysis using red blood cells; given as affinity
[3] = biological target: T1, Duffy Antigen Receptor for Chemokines …; assay: Duffy binding; kind of constant not named
[4] = biological target: T1, Duffy Antigen Receptor for Chemokines …; assay: Table 18, DARC binding; ns = not significantly different from control
[5] = biological target: T1, Duffy Antigen Receptor for Chemokines …; assay: DARC binding on red blood cells; printed as Duffy affinity
[6] = biological target: T1, Duffy Antigen Receptor for Chemokines …; assay: estimated ka for binding to red blood cells divided by average inhibitory ED50 in THP-1 migration

T7 sequence (P51681 whole entry): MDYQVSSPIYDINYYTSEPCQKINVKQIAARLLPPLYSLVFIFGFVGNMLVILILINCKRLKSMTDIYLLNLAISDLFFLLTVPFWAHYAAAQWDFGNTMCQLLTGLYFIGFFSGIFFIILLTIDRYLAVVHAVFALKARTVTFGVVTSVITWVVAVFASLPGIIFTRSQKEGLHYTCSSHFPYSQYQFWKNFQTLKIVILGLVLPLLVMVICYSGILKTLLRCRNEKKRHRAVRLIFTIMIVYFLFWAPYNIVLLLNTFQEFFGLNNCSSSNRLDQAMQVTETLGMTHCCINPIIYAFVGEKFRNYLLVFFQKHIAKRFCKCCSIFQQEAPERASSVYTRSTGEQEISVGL
T9 sequence (P41597 whole entry): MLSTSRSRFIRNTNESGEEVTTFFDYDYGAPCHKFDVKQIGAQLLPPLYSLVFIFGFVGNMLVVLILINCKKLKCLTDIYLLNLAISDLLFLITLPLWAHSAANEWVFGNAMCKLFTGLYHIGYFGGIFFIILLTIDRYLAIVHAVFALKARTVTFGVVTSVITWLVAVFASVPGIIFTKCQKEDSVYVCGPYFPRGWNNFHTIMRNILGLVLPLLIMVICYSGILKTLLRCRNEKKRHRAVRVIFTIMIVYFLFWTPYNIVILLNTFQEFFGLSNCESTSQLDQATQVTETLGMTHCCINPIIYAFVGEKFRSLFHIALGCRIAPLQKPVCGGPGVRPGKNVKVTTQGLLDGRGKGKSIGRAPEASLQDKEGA
T5 sequence (P61073 whole entry): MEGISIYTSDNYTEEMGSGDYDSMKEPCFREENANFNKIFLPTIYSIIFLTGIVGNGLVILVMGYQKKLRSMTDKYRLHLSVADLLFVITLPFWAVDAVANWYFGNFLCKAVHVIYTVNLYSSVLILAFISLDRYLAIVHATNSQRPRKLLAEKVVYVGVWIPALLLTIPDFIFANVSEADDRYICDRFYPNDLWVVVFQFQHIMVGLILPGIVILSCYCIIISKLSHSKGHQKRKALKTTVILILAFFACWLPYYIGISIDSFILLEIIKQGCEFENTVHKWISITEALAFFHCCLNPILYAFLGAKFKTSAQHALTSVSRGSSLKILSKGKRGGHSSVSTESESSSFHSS

B3: Pep2(1-16)[IL8] (peptide)
peptide: ELRVIESGPHCANTEI
notes: also called Pep2[IL8]
Duffy selectivity [1]: < 1 ratio

B4: Peptide 2(1-15)[MCP-1] (peptide)
peptide: SYRRITSSKCPKEAV
notes: also called Pep2[MCP1]; Pep2(1-15)[MCP1]
Kd [2]: < 0.5 µM
Duffy selectivity [1]: 0.18 ratio
Kd [3]: 100 µM

B6: Peptide 2(1-9)[MCP-1] (peptide)
peptide: SYRRITSSK
Kd [5]: ~50 µM

B7: Leu4Ile11peptide 3(1-12)[MCP-1] (peptide)
peptide: EICLDPKQKWIQ
notes: also called Leu4Ile11pep3; Leu4Ile11peptide 3[MCP-1]
Duffy selectivity [6]: 37.8 ratio

More lines, now with the values ahead:

Duffy selectivity [1]: > 100 ratio
B1: Pep2(1-14)[MIP1α] (peptide)
peptide: DYFETSSQCSKPGV
notes: Called peptide 2(1-15)[MIP1α]; also called Pep2[MIP1α]; peptide 2(1-15)[MIP1-α]

Kd (CCR1): > 10 µM
Kd (CXCR2): > 10 µM
Kd (CXCR1): > 10 µM
Kd (CXCR4): > 10 µM
Kd (CCR4): > 10 µM
Kd (CCR5): > 10 µM
Kd (CCR3): > 10 µM
Kd (CCR2): > 10 µM
B2: N-terminal biotin conjugate of the sequence n'-CLDPKQKWIQC-c' (peptide)
peptide: Biotin-CLDPKQKWIQC
modifications: cysteine pairing not given here
notes: also called biotinylated peptide

binding result [4]: no binding
B5: CSKPGV (peptide)
peptide: CSKPGV

binding result [4]: no binding
B8: DYFETSSQC (peptide)
peptide: DYFETSSQC

— patent publication EP2386565A2 (Cambridge Enterprise Ltd., dated 2000)
